Measurements reported in patent US20180092966A1 (CSL, published 2018).

Key:
[1] = biological target: VWF-FP (albumin-fused von Willebrand Factor) (human); test: covalent-FVIII ELISA over FVIII antigen ELISA
[2] = biological target: VWF-FP (albumin-fused von Willebrand Factor) (human); test: covalent-FVIII ELISA over FVIII activity assay
[3] = biological target: T1, VWF-FP H817C mutant (albumin-fused von Willebrand Factor) (human); test: covalent-FVIII ELISA over FVIII antigen ELISA
T1 construct: Stably expressed in CHO cells with furin co-transfected; also called VWF-FP mutant H817C; Cys residue at VWF aa position 817; not shown: linker between VWF and albumin, made in analogy to WO 2009/156137

[4] = biological target: T1, VWF-FP H817C mutant (albumin-fused von …); test: covalent-FVIII ELISA over FVIII activity assay
[5] = biological target: T1, VWF-FP H817C mutant (albumin-fused von …); test: ELISA of co-expression supernatant: anti-VWF capture, 350 mM CaCl2 wash, anti-FVIII detection
Procedure: Cell culture supernatant samples (10 ml) from transient transfections were concentrated with Amicon Ultracell-30K (Millipore UFC903024; 3000 g centrifugation). FVIII covalently attached to VWF-FP in culture supernatant (concentrates) was determined by a standard ELISA. Briefly, microplates were incubated with 100 μL per well of the capture antibody (rabbit anti human VWF-IgG, Dako A0082 [Dako, Hamburg, Germany], diluted 1:2000 in buffer A [Sigma C3041, Sigma-Aldrich, Munich, Germany]) overnight at ambient temperature. After washing plates three times with buffer B (Sigma T9039), each well was incubated with 200 μL buffer C (Sigma T6789) for 1.5 hours at ambient temperature (blocking). After another three wash steps with buffer B, serial dilutions of the test sample in buffer B as well as serial dilutions of a control preparation of covalently linked FVIII-VWF-FP, (2.0-0.03 arbitrary U/ml in buffer B (we call these “arbitrary units” as they may not correspond to the standard FVIII units as determined using Standard Human Plasma); volumes per well: 100 μL) were incubated for 1.5 hours at ambient temperature. After three wash steps with buffer B, 200 μL of 350 mM CaCl₂ were added to each well and incubated for 1 hour at ambient temperature. CaCl₂ was removed (without washing) and additional 200 μl were added to each well and incubated further for 1 hour. After three wash steps with buffer B 100 μL of a 1:2 dilution in buffer B of the detection antibody (Detecting Antibody for FVIII:C, peroxidase labelled, Cedarlane CL20035K-D) were added to each well and incubated for 1 hour at ambient temperature. After three wash steps with buffer B, 100 μL of substrate solution (OUVF, Siemens Healthcare Diagnostics) were added per well and incubated for 15 minutes at ambient temperature in the dark. Addition of 100 μL undiluted stop dilution (OSFA, Siemens Healthcare Diagnostics) prepared the samples for reading in a suitable microplate reader at 450 nm wavelength. Concentrations of the test samples were then calculated using the standard curve with the control preparation.

T1 sequence (chain, as listed by the source H817C H817C): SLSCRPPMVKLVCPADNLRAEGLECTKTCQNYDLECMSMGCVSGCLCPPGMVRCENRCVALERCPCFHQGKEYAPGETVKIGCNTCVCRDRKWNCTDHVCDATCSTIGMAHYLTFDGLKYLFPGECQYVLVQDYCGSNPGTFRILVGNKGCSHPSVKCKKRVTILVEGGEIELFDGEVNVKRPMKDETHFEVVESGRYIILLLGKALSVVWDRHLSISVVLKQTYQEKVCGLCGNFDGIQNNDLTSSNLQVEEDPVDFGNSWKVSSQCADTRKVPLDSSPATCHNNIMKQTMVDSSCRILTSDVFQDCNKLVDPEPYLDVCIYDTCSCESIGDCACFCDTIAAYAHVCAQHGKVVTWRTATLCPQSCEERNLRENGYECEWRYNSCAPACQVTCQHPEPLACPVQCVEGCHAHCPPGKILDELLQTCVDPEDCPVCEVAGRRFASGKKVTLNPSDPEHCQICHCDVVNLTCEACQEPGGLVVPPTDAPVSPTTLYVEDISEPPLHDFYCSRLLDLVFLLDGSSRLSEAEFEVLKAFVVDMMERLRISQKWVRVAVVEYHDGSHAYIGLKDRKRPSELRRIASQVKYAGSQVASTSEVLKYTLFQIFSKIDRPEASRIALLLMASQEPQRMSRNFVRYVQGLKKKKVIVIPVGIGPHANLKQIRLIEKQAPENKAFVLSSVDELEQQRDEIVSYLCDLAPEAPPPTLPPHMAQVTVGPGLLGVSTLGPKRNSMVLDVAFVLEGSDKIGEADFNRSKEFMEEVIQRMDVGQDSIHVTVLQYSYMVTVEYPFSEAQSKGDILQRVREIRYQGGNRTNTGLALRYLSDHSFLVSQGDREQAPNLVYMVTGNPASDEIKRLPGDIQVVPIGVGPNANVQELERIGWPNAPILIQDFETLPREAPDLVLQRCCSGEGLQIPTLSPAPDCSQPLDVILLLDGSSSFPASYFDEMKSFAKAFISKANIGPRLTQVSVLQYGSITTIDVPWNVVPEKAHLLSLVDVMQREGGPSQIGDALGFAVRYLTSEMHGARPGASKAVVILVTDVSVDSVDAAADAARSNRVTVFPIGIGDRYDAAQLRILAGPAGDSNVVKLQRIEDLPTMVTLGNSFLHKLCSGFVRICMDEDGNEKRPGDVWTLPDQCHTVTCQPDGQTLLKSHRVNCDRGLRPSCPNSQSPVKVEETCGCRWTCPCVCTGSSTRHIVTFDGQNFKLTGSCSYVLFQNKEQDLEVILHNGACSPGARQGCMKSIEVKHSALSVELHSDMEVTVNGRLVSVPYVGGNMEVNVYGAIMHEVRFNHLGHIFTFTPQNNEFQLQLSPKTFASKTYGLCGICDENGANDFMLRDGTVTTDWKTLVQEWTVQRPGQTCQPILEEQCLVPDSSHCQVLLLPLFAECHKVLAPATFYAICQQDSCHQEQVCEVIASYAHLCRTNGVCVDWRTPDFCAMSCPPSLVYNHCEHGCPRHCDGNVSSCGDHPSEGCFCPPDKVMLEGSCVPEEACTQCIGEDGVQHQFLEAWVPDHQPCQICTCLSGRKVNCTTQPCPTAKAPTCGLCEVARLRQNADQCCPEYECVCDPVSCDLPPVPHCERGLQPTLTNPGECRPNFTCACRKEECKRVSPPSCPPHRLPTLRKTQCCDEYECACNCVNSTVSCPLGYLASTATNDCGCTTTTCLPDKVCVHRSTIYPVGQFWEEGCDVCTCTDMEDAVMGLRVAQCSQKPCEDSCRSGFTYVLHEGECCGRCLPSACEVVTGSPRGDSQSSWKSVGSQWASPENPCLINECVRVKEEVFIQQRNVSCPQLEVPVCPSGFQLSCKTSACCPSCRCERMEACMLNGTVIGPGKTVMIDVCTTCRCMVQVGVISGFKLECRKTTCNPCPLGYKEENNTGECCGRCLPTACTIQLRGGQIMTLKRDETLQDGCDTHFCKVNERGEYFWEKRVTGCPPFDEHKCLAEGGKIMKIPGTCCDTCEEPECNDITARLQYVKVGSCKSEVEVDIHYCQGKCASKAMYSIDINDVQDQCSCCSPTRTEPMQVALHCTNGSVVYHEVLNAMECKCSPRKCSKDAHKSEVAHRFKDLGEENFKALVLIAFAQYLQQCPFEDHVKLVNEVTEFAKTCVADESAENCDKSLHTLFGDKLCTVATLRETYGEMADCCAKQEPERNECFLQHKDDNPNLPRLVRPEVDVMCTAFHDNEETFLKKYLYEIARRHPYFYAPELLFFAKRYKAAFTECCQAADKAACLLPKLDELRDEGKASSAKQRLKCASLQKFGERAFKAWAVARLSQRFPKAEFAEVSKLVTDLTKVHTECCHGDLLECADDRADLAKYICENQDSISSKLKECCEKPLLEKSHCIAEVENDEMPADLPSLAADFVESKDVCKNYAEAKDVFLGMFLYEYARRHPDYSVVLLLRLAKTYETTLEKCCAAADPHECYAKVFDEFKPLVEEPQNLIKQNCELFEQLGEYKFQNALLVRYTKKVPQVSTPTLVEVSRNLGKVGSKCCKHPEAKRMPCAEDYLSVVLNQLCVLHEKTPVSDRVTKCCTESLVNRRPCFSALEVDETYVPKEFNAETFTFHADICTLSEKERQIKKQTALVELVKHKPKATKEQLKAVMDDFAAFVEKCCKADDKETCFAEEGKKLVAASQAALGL
Chain of VWF-FP (albumin-fused von Willebrand Factor) (human) (chain, as listed by the source): as the sequence (chain, as listed by the source H817C H817C) above, with C54H counted along it

Row | Molecule | ratio of covalent FVIII to total FVIII antigen [1] | ratio of covalent FVIII to total FVIII activity [2] | ratio covalent FVIII/Total FVIII antigen [3] | ratio covalent FVIII/Total FVIII activity [4] | covalent FVIII [5] [amU/ml]
1 | FVIII-SingleChain with VWF-derived C3-C4-C5-C6-CK sequence added to its C-terminus and a thrombin cleavage site between them | 7.47 | 5.78 | – | – | –
2 | Factor VIII SingleChain N2129C mutant (other, Single-chain FVIII with partial B-domain deletion; also called FVIII-SC N2129C; Cys residue at FVIII aa position 2129) ATRRYYLGAVELSWDYMQSDLGELPVDARFPPRVPKSFPFNTSVVYKKTLFVEFTDHLFNIAKPRPPWMGLLGPTIQAEVYDTVVITLKNMASHPVSLHAVGVSYWKASEGAEYDDQTSQREKEDDKVFPGGSHTYVWQVLKENGPMASDPLCLTYSYLSHVDLVKDLNSGLIGALLVCREGSLAKEKTQTLHKFILLFAVFDEGKSWHSETKNSLMQDRDAASARAWPKMHTVNGYVNRSLPGLIGCHRKSVYWHVIGMGTTPEVHSIFLEGHTFLVRNHRQASLEISPITFLTAQTLLMDLGQFLLFCHISSHQHDGMEAYVKVDSCPEEPQLRMKNNEEAEDYDDDLTDSEMDVVRFDDDNSPSFIQIRSVAKKHPKTWVHYIAAEEEDWDYAPLVLAPDDRSYKSQYLNNGPQRIGRKYKKVRFMAYTDETFKTREAIQHESGILGPLLYGEVGDTLLIIFKNQASRPYNIYPHGITDVRPLYSRRLPKGVKHLKDFPILPGEIFKYKWTVTVEDGPTKSDPRCLTRYYSSFVNMERDLASGLIGPLLICYKESVDQRGNQIMSDKRNVILFSVFDENRSWYLTENIQRFLPNPAGVQLEDPEFQASNIMHSINGYVFDSLQLSVCLHEVAYWYILSIGAQTDFLSVFFSGYTFKHKMVYEDTLTLFPFSGETVFMSMENPGLWILGCHNSDFRNRGMTALLKVSSCDKNTGDYYEDSYEDISAYLLSKNNAIEPRSFSQNSRHRSTRQKQFNATTIPENTTLQSDQEEIDYDDTISVEMKKEDFDIYDEDENQSPRSFQKKTRHYFIAAVERLWDYGMSSSPHVLRNRAQSGSVPQFKKVVFQEFTDGSFTQPLYRGELNEHLGLLGPYIRAEVEDNIMVTFRNQASRPYSFYSSLISYEEDQRQGAEPRKNFVKPNETKTYFWKVQHHMAPTKDEFDCKAWAYFSDVDLEKDVHSGLIGPLLVCHTNTLNPAHGRQVTVQEFALFFTIFDETKSWYFTENMERNCRAPCNIQMEDPTFKENYRFHAINGYIMDTLPGLVMAQDQRIRWYLLSMGSNENIHSIHFSGHVFTVRKKEEYKMALYNLYPGVFETVEMLPSKAGIWRVECLIGEHLHAGMSTLFLVYSNKCQTPLGMASGHIRDFQITASGQYGQWAPKLARLHYSGSINAWSTKEPFSWIKVDLLAPMIIHGIKTQGARQKFSSLYISQFIIMYSLDGKKWQTYRGNSTGTLMVFFGCVDSSGIKHNIFNPPIIARYIRLHPTHYSIRSTLRMELMGCDLNSCSMPLGMESKAISDAQITASSYFTNMFATWSPSKARLHLQGRSNAWRPQVNNPKEWLQVDFQKTMKVTGVTTQGVKSLLTSMYVKEFLISSSQDGHQWTLFFQNGKVKVFQGNQDSFTPVVNSLDPPLLTRYLRIHPQSWVHQIALRMEVLGCEAQDLY | – | – | 0.33 | 1.02 | 292
